Patent US20150011421

Experiments:
[1] = test system: H2N-(CH2)4-CO-(SEQ ID NO:1)-NH-CH2-Fc
[2] = test system: H2N-(CH2)4-CO-(SEQ ID NO:2)-NH-CH2-Fc
[3] = test system: H2N-(CH2)4-CO-(SEQ ID NO:5)-NH-CH2-Fc
[4] = test system: T1, Biotin-AEEEIYGEFEAKKKKC (SEQ ID NO:4)
T1 sequence: AEEEIYGEFEAKKKKC

[5] = target: T2, Biotin-AEEEIYGEFEAKKKKC (SEQ ID NO:4), fully phosphorylated by c-Src kinase
T2 chain: AEEEIYGEFEAKKKKC

[6] = target: T3, H2N-(CH2)4-CO-(SEQ ID NO:1)-NH-CH2-Fc
T3 chain: AANL

Z-Ala-Ala-Asn-AMC = target: T4, Z-Ala-Ala-Asn-AMC
T4 chain: AAN

Molecule: Purified recombinant human cathepsin B (R&D Systems), activated in 5 mM DTT and 25 mM MES buffer (pH 5.0)
- ACV peak current after adding activated cathepsin B (negative control) [1]: The peak current ip,acv of these two tetrapeptides did not show the characteristic exponential decay while the activated cathepsin B was added
- cleavage product by HPLC/MS after 2 h incubation in solution [2]: The cleavage product, Phe-Gly-NH-CH2-Fc appeared at 37 min, was found confirming that the proteolysis took place at the arginine site
- ACV peak current after adding activated cathepsin B (negative control, P1 Arg replaced by Asn) [3]: The peak current ip,acv of these two tetrapeptides did not show the characteristic exponential decay while the activated cathepsin B was added

Molecule: Active c-Src kinase protein (N-terminal 6His-tagged recombinant human c-Src, molecular weight 61.7 kDa)
- phosphorylation of the immobilized peptide [4]: The peptide at the VACNF NEA was fully phosphorylated with 1-hour further incubation in c-Src kinase solution

B1: PTP1B (residues 1-322, molecular weight 37.4 kDa) (protein)
chain: MEMEKEFEQIDKSGSWAAIYQDIRHEASDFPCRVAKLPKNKNRNRYRDVSPFDHSRIKLHQEDNDYINASLIKMEEAQRSYILTQGPLPNTCGHFWEMVWEQKSRGVVMLNRVMEKGSLKCAQYWPQKEEKEMIFEDTNLKLTLISEDIKSYYTVRQLELENLTTQETREILHFHYTTWPDFGVPESPASFLNFLFKVRESGSLSPEHGPVVVHCSAGIGRSGTFCLADTCLLLMDKRKDPSSVDIKKVLLEMRKFRMGLIQTADQLRFSYLAVIEGAKFIMGDSSVQDQWKELSHEDLEPPPEHIPPPPRPPKRILEPHNG
- (kcat/Km)[E0], slope of -d(|Z|/|Z0|)/dt vs. |Z|/|Z0|, [E0]=2.4 nM [5]: a slope of 0.0522 s^-1
- decrease in |Z| (REIS) over ~100 s after adding 2.4 nM PTP1B [5]: A sharp decrease in |Z| by ~1,150Ω (~6.3%)
- decrease in |Z| (REIS) over ~100 s after adding 2.4 nM PTP1B, percent [5]: A sharp decrease in |Z| by ~1,150Ω (~6.3%)
- specificity constant kcat/Km (REIS, 2.4 nM PTP1B) [5]: 2.2e+07 M⁻¹ s⁻¹
- specificity constant kcat/Km (REIS, average of 7 data sets at three PTP1B concentrations) [5]: an average value of 2.1×10^7 M^-1 s^-1 and a standard deviation of 1.0×10^6 M^-1 s^-1

B2: Recombinant human legumain/asparaginyl endopeptidase (R&D Systems), activated in 50 mM CH3COONa (pH 4.0) and 100 mM NaCl (protein)
chain: VPIDDPEDGGKHWVVIVAGSNGWYNYRHQADACHAYQIIHRNGIPDEQIVVMMYDDIAYSEDNPTPGIVINRPNGTDVYQGVPKDYTGEDVTPQNFLAVLRGDAEAVKGIGSGKVLKSGPQDHVFIYFTDHGSTGILVFPNEDLHVKDLNETIHYMYKHKMYRKMVFYIEACESGSMMNHLPDNINVYATTAANPRESSYACYYDEKRSTYLGDWYSVNWMEDSDVEDLTKETLHKQYHLVKSHTNTSHVMQYGNKTISTMKVMQFQGMKRKASSPVPLPPVTHLDLTPSPDVPLTIMKRKLMNTN
- (kcat/Km)[E0], slope of reaction rate vs. surface adsorbed Fc, [E0]=773 nM [6]: a slope of 6.32×10^-4 s^-1
- (kcat/Km)[E0], slope of vi vs. Γsurf, [E0]=80.1 nM [6]: the slope of 6.30×10^-4 s^-1 at [E0]=80.1 nM
- specificity constant kcat/KM (electrochemistry, EC, VACNF NEAs) [6]: 11300 M⁻¹ s⁻¹
- specificity constant kcat/Km (ACV on VACNF NEA), as given in the summary of Example 1 [6]: 8200 M⁻¹ s⁻¹
- specificity constant kcat/Km (ACV, single experiment at 80.1 nM) [6]: 7900 M⁻¹ s⁻¹
- time constant in the fit of surface adsorbed Fc vs. time [6]: the time constant is 1101 s (~48 min)
- time constant of the exponential decay of the ACV peak current after adding legumain [6]: The time constant is 1076 s (~18 min.)
- specificity constant kcat/KM (fluorescence assay, FL) (Z-Ala-Ala-Asn-AMC): 4300 M⁻¹ s⁻¹
